Experimental data taken from article PMC8809517, “Cofactor-independent RNA editing by a synthetic S-type PPR protein”.

T1: GFP-9S library array, motif 4 ND N98S;D124W (synthetic construct, N98S;D124W)
T1 chain: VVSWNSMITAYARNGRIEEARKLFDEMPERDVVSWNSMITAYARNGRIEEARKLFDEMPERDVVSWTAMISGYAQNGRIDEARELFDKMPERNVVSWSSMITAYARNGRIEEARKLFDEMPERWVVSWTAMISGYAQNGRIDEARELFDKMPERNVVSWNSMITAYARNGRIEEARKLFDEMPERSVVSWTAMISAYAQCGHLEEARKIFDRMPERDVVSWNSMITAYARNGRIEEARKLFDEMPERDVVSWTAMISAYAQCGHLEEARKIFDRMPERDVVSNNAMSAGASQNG

T2: GFP-9S library array, motif 4 ND N98M;D124H (synthetic construct, N98M;D124H)
T2 chain: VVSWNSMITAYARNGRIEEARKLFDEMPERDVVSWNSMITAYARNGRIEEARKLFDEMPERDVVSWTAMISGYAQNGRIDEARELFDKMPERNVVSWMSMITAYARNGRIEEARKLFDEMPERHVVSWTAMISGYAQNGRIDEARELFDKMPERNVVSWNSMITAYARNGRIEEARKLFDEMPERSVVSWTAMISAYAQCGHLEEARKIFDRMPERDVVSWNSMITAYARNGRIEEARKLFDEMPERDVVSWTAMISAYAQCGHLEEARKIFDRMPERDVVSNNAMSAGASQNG

T3: GFP-9S library array, motif 4 ND N98I;D124A (synthetic construct, N98I;D124A)
T3 chain: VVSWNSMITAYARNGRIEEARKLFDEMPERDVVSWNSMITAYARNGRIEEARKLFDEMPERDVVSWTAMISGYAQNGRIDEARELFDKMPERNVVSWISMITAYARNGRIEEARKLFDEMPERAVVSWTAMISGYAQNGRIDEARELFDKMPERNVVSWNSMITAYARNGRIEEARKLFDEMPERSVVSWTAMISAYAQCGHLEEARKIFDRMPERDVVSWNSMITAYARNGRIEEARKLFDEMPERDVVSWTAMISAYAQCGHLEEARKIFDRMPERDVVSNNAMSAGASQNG

T4: GFP-9S library array, motif 4 ND N98W;D124Q (synthetic construct, N98W;D124Q)
T4 chain: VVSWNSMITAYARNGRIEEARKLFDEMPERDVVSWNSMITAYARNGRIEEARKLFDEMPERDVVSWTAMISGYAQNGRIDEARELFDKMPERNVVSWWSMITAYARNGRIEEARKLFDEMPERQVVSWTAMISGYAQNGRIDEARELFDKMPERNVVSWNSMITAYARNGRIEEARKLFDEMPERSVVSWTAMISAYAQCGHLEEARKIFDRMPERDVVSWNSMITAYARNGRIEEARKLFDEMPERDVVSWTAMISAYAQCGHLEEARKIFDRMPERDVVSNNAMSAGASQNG

T5: GFP-9S library array, motif 4 ND N98F;D124P (synthetic construct, N98F;D124P)
T5 chain: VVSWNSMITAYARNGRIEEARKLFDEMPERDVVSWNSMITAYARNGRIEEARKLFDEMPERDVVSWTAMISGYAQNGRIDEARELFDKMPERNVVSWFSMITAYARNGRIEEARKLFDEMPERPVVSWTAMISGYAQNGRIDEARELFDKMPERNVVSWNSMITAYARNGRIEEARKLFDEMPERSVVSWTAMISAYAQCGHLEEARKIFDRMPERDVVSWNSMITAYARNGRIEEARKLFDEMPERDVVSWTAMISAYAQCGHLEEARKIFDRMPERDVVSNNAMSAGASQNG


Legend:
Assay in all cases: high-throughput RNA pulldown from lysate on Ni-NTA beads; HRP: 50 mM Tris pH 8, 150 mM NaCl, 1 mM beta-mercaptoethanol, 50 ug/ml BSA, 3 ug/ml yeast RNA, 0.5% heparin; ITC and FP: Tris pH 8, 200 mM KCl, 5% glycerol; MST: 50 mM Tris pH 8, 200 mM NaCl, 1 mM DTT, BSA, heparin, 0.05% Tween 20
Conditions in all cases: tags: N-terminal His-eGFP
[1] = biological target: T1, GFP-9S library array, motif 4 ND …
[2] = biological target: T2, GFP-9S library array, motif 4 ND …
[3] = biological target: T3, GFP-9S library array, motif 4 ND …
[4] = biological target: T4, GFP-9S library array, motif 4 ND …
[5] = biological target: T5, GFP-9S library array, motif 4 ND …

Row | Binder | Kd ([1]; label: 5' IRDye 800CW) [nM] | Kd ([2]; label: 5' IRDye 800CW) [nM] | Kd ([3]; label: 5' IRDye 800CW) [nM] | Kd ([4]; label: 5' IRDye 800CW) [nM] | Kd ([5]; label: 5' IRDye 800CW) [nM] | Kd ([1]; label: 5' Cy5) [nM] | Kd ([2]; label: 5' Cy5) [nM] | Kd ([3]; label: 5' Cy5) [nM] | Kd ([4]; label: 5' Cy5) [nM] | Kd ([5]; label: 5' Cy5) [nM]
1 | AUUAUACGUGA (ssRNA) [IR-rpoA-U] | 156 | 412 | 757 | 195 | 196 |  |  |  |  | 
2 | AUUACACGUGA (ssRNA) [Cy5-rpoA] |  |  |  |  |  | 90.7 | 242 | 213 | 101 | 140
3 | AUUAAACGUGA (ssRNA) [IR-rpoA-A] | 218 | 574 | 620 | 224 | 393 |  |  |  |  | 
4 | AUUAGACGUGA (ssRNA) [Cy5-rpoA-G] |  |  |  |  |  | 126 | 257 | 259 | 94.4 | 181
